± gives the uncertainty stated by the source.

B1: Dystrobrevin alpha, residues 235 to 294; numbered along this chain, Q9Y4J8 (parent)
chain: ENVFHPVECSYCHSESMMGFRYRCQQCHNYQLCQDCFWRGHAGGSHSNQHQMKEYTSWKS

This series covers variants of B1. The series is described as follows: abundance fitness (aPCA) (normalised: wild type 0, dead -1); higher = more abundant; growth selection in yeast, the domain comes from the species named. To be noted: Homo sapiens.
On to N48M, for which the abundance fitness was -0.149 ± 0.058. Consider N48A, for which the abundance fitness amounted to 0.007 ± 0.059. For the variant N48L, the abundance fitness was -0.22 ± 0.065. Next, N48Y: -0.318 ± 0.16; N48C: -0.063 ± 0.087; N48I: -0.177 ± 0.1.

N48P: the abundance fitness was 0.108 ± 0.095. Regarding N48E, the abundance fitness is -0.167 ± 0.12.

With N48T, the abundance fitness is -0.042 ± 0.081. Next, N2Q: 0.019 ± 0.11; N2V: -0.129 ± 0.089; N2T: 0.049 ± 0.068. Next, N2Y: -0.035 ± 0.088.

For N2W, the abundance fitness was -0.285 ± 0.08.

Take N2P: the abundance fitness was -0.09 ± 0.085. Next, N2A: 0.066 ± 0.064; N2M: 0.092 ± 0.081; Q31V: 0.098 ± 0.07. As to Q31D, the abundance fitness was -0.012 ± 0.076.

In the case of W58M, the abundance fitness was determined as 0.251 ± 0.068. The same measure for W58S: 0.057 ± 0.06; for W58Q: -0.127 ± 0.15.

C24V: the abundance fitness is -0.838 ± 0.1. Next, C24G: -0.736 ± 0.058; C24K: -0.928 ± 0.14. Next, C24D: -0.441 ± 0.18; C24N: -0.691 ± 0.12. The same measure for C24S: -0.851 ± 0.071. On to S14W, for which the abundance fitness is -0.416 ± 0.13. On to S14Y, for which the abundance fitness was -0.324 ± 0.074. Next, S14L: -0.153 ± 0.056. Next, S14E: -0.074 ± 0.082; S14K: -0.043 ± 0.11; S14N: -0.003 ± 0.11. Next, M18N: 0.101 ± 0.074; M18T: 0.075 ± 0.06; M18P: 0.116 ± 0.064. For M18C, the abundance fitness was -0.189 ± 0.071. Next, W38V: 0.13 ± 0.1.

Turning to W38Y, the abundance fitness is 0.214 ± 0.11. The same measure for W38I: 0.318 ± 0.12; for W38L: 0.167 ± 0.083. Next, W38A: 0.305 ± 0.074.

For the variant W38D, the abundance fitness was 0.288 ± 0.1. Next, C9P: -0.969 ± 0.15. Next, C9A: -1.12 ± 0.14.

Consider C9G, for which the abundance fitness is -0.93 ± 0.098. Regarding C9L, the abundance fitness is -1.22 ± 0.11. The same measure for C9H: -1.26 ± 0.2. The same measure for C9V: -1.1 ± 0.093. The same measure for C9N: -1.06 ± 0.21. Turning to C9S, the abundance fitness was -1.01 ± 0.1. Next, D35W: -0.33 ± 0.1.

Consider D35C, for which the abundance fitness was -0.113 ± 0.12. Next, D35Y: 0.011 ± 0.1; D35V: -0.084 ± 0.081. The same measure for F20W: 0.137 ± 0.078; for F20I: 0.061 ± 0.083; for F20K: 0.31 ± 0.076. The same measure for F20Q: 0.134 ± 0.044; for F20M: -0.004 ± 0.074; for F20A: 0.224 ± 0.054. In the case of F20Y, the abundance fitness worked out at 0.045 ± 0.091. Next, F20T: 0.15 ± 0.057; L32A: -0.656 ± 0.15; L32R: -0.647 ± 0.12. Next, L32C: 0.038 ± 0.28; L32M: -0.793 ± 0.19.

As to Q34E, the abundance fitness turned out to be 0.044 ± 0.11. Next, Q34K: 0.127 ± 0.16. For Q34S, the abundance fitness is -0.087 ± 0.12.

For Q49T, the abundance fitness was determined as 0.072 ± 0.041.

Take Q49F: the abundance fitness is -0.138 ± 0.059.

Turning to Q49Y, the abundance fitness was -0.256 ± 0.046.

Regarding Q49N, the abundance fitness turned out to be 0.019 ± 0.062. The same measure for V7C: 0.004 ± 0.084; for V7I: -0.023 ± 0.098. The same measure for V7A: 0.063 ± 0.058; for V7Y: -0.161 ± 0.12. Next, V7R: -0.036 ± 0.043; V7W: -0.072 ± 0.055; H41W: -0.323 ± 0.093. In the case of H41A, the abundance fitness turned out to be 0.013 ± 0.082.

On to H41D, for which the abundance fitness was -0.296 ± 0.1. On to H41V, for which the abundance fitness turned out to be 0.122 ± 0.055. Next, H41S: 0.037 ± 0.057. The same measure for H41C: 0.013 ± 0.082; for F37R: -0.098 ± 0.051.

F37N: the abundance fitness is -0.401 ± 0.17. The same measure for F37Q: -0.003 ± 0.074. The same measure for F37T: -0.439 ± 0.075; for F37P: -0.62 ± 0.13. The same measure for F37C: -0.473 ± 0.17; for H5R: -0.176 ± 0.045; for H5Q: -0.195 ± 0.09. H5F: the abundance fitness is -0.201 ± 0.18. Regarding H5N, the abundance fitness amounted to 0.259 ± 0.085.

With H5G, the abundance fitness is -0.127 ± 0.055.

For the variant C12D, the abundance fitness is -0.939 ± 0.29.

Take C12L: the abundance fitness was -1.22 ± 0.11. Turning to C12V, the abundance fitness was -1.1 ± 0.1. Next, C12H: -0.549 ± 0.15. For C12G, the abundance fitness is -0.762 ± 0.067. Next, G44W: -0.616 ± 0.19; G44E: -0.303 ± 0.15. Next, G44F: -1.15 ± 0.21; G44D: 0.077 ± 0.15. Next, G44K: -0.177 ± 0.099; G44C: -0.362 ± 0.11; M17Y: -0.183 ± 0.094. Regarding M17I, the abundance fitness stood at 0.045 ± 0.088.

As to M17P, the abundance fitness was -0.008 ± 0.061. On to M17K, for which the abundance fitness is 0.136 ± 0.066. The same measure for M17N: 0.046 ± 0.064. The same measure for M52G: -0.554 ± 0.071; for M52V: -0.025 ± 0.088.

In the case of M52C, the abundance fitness was -0.194 ± 0.12. The same measure for M52W: -0.449 ± 0.099; for M52N: -0.764 ± 0.27; for M52D: -0.471 ± 0.12. Next, M52I: -0.3 ± 0.1. Next, M52H: -0.87 ± 0.23; A42T: -0.054 ± 0.065. A42M: the abundance fitness is -0.04 ± 0.086. The same measure for G43W: -0.208 ± 0.13; for G43N: 0.121 ± 0.13; for G43L: -0.221 ± 0.064. Next, G43A: -0.325 ± 0.073; G43D: 0.325 ± 0.1. Turning to G43M, the abundance fitness was -0.068 ± 0.15. Next, G43P: -0.765 ± 0.15; G19K: 0.129 ± 0.062; G19Y: -0.248 ± 0.071.

Consider G19H, for which the abundance fitness was 0.003 ± 0.094.

On to G19P, for which the abundance fitness is 0.018 ± 0.084. In the case of G19Q, the abundance fitness is 0.046 ± 0.04. For G19E, the abundance fitness is -0.103 ± 0.075. The same measure for G19D: -0.046 ± 0.14. For the variant E8R, the abundance fitness is -0.222 ± 0.047. Next, E8S: -0.124 ± 0.053; E8D: -0.206 ± 0.13.

On to E8I, for which the abundance fitness is -0.104 ± 0.089.

Take E8N: the abundance fitness was -0.17 ± 0.11. Next, E8Q: -0.155 ± 0.066. The same measure for E8M: -0.35 ± 0.074; for E8P: -0.001 ± 0.051; for E8Y: -0.157 ± 0.075. Next, E8V: -0.329 ± 0.064; R21V: -0.207 ± 0.081; R21A: -0.02 ± 0.1. In the case of R21D, the abundance fitness was -0.436 ± 0.12. Take R21I: the abundance fitness was -0.128 ± 0.16.

As for R21T, the abundance fitness was determined as 0.088 ± 0.096. Next, H46Q: -0.331 ± 0.13; H46M: -0.17 ± 0.073. The same measure for H46T: -0.219 ± 0.073.

Turning to H46D, the abundance fitness is -0.2 ± 0.085. Next, C36L: -0.817 ± 0.16; C36S: -0.992 ± 0.16. As for C36D, the abundance fitness is -0.624 ± 0.16. Turning to C36K, the abundance fitness is -0.192 ± 0.15. Next, C36I: -0.733 ± 0.17; C36M: -0.723 ± 0.47; Y11Q: -0.223 ± 0.1. Next, Y11F: 0.039 ± 0.068; Y11R: -0.37 ± 0.055. The same measure for Y11T: -0.201 ± 0.079.

The record behind these values is the Human Domainome abundance scans (Beltran et al. 2025).
